Results from patent US20140147444A1 (published 2014).
Changes are numbered by the printed parent chain. Names may count otherwise.

T1: human OPGbp [143-317] (human, UniProt O14788 143-317)
T1 construct: also called OPGL
T1 sequence (looked up): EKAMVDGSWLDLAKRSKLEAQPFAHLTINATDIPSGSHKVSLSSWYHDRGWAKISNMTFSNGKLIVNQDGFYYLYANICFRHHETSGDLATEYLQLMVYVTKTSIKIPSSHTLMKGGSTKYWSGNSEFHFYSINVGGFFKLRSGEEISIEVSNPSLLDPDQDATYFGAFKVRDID

B1: “AT” antibody variant S96D (heavy chain CDR3) (antibody, name in Kabat numbering, V domains shown)
VH: QVQLVQSGAEVRKPGASVKVSCKASGYDFSNYAIHWVRQAPGQRLEWMGWINAGNGNTKFSQKFQGRITVTRDTAASTAYMELRSLRSEDTAVYYCARDDSNMVRGIIIAYYFDYWGQGTLVTVSS
VL: EIVMTQSPSSLSASVGDRVTITCRASQSISRYLNWYQLKPGKAPRLLIYGASSLQSGVPSRFSGSGSGAEFTLTISSLQPEDIATYYCQHTRAFGQGTKVEIKR
notes: not shown: human IgG1 CH1, hinge, CH2 and CH3
B2: “AT” antibody variant S96E (heavy chain CDR3) (antibody, name in Kabat numbering, V domains shown)
VH: B1 VH with D100E
VL: B1 VL
notes: as for B1
B3: “AT” antibody variant S96F (heavy chain CDR3) (antibody, name in Kabat numbering, V domains shown)
VH: B1 VH with D100F
VL: B1 VL
notes: as for B1
B4: “AT” antibody variant S96G (heavy chain CDR3) (antibody, name in Kabat numbering, V domains shown)
VH: B1 VH with D100G
VL: B1 VL
notes: as for B1
B5: “AT” antibody variant S96H (heavy chain CDR3) (antibody, name in Kabat numbering, V domains shown)
VH: B1 VH with D100H
VL: B1 VL
notes: as for B1
B6: “AT” antibody variant S96I (heavy chain CDR3) (antibody, name in Kabat numbering, V domains shown)
VH: B1 VH with D100I
VL: B1 VL
notes: as for B1
B7: “AT” antibody variant S96K (heavy chain CDR3) (antibody, name in Kabat numbering, V domains shown)
VH: B1 VH with D100K
VL: B1 VL
notes: as for B1
B8: “AT” antibody variant S96L (heavy chain CDR3) (antibody, name in Kabat numbering, V domains shown)
VH: B1 VH with D100L
VL: B1 VL
notes: as for B1
B9: “AT” antibody variant S96M (heavy chain CDR3) (antibody, name in Kabat numbering, V domains shown)
VH: B1 VH with D100M
VL: B1 VL
notes: as for B1
B10: “AT” antibody variant S96N (heavy chain CDR3) (antibody, name in Kabat numbering, V domains shown)
VH: B1 VH with D100N
VL: B1 VL
notes: as for B1
B11: “AT” antibody variant S96P (heavy chain CDR3) (antibody, name in Kabat numbering, V domains shown)
VH: B1 VH with D100P
VL: B1 VL
notes: as for B1
B12: “AT” antibody variant S96Q (heavy chain CDR3) (antibody, name in Kabat numbering, V domains shown)
VH: B1 VH with D100Q
VL: B1 VL
notes: as for B1
B13: “AT” antibody variant S96R (heavy chain CDR3) (antibody, name in Kabat numbering, V domains shown)
VH: B1 VH with D100R
VL: B1 VL
notes: as for B1
B14: “AT” antibody variant S96T (heavy chain CDR3) (antibody, name in Kabat numbering, V domains shown)
VH: B1 VH with D100T
VL: B1 VL
notes: as for B1
B15: “AT” antibody variant S96V (heavy chain CDR3) (antibody, name in Kabat numbering, V domains shown)
VH: B1 VH with D100V
VL: B1 VL
notes: as for B1
B16: “AT” antibody variant S96W (heavy chain CDR3) (antibody, name in Kabat numbering, V domains shown)
VH: B1 VH with D100W
VL: B1 VL
notes: as for B1
B17: “AT” antibody variant S96Y (heavy chain CDR3) (antibody, name in Kabat numbering, V domains shown)
VH: B1 VH with D100Y
VL: B1 VL
notes: as for B1
B18: “AT” antibody variant N98D (heavy chain CDR3) (antibody, name in Kabat numbering, V domains shown)
VH: B1 VH with D100S, N102D
VL: B1 VL
notes: as for B1
B19: “AT” antibody variant N98E (heavy chain CDR3) (antibody, name in Kabat numbering, V domains shown)
VH: B1 VH with D100S, N102E
VL: B1 VL
notes: as for B1
B20: “AT” antibody variant N98F (heavy chain CDR3) (antibody, name in Kabat numbering, V domains shown)
VH: B1 VH with D100S, N102F
VL: B1 VL
notes: as for B1
B21: “AT” antibody variant N98G (heavy chain CDR3) (antibody, name in Kabat numbering, V domains shown)
VH: B1 VH with D100S, N102G
VL: B1 VL
notes: as for B1
B22: “AT” antibody variant N98H (heavy chain CDR3) (antibody, name in Kabat numbering, V domains shown)
VH: B1 VH with D100S, N102H
VL: B1 VL
notes: as for B1
B23: “AT” antibody variant N98I (heavy chain CDR3) (antibody, name in Kabat numbering, V domains shown)
VH: B1 VH with D100S, N102I
VL: B1 VL
notes: as for B1
B24: “AT” antibody variant N98K (heavy chain CDR3) (antibody, name in Kabat numbering, V domains shown)
VH: B1 VH with D100S, N102K
VL: B1 VL
notes: as for B1
B25: “AT” antibody variant N98L (heavy chain CDR3) (antibody, name in Kabat numbering, V domains shown)
VH: B1 VH with D100S, N102L
VL: B1 VL
notes: as for B1
B26: “AT” antibody variant N98M (heavy chain CDR3) (antibody, name in Kabat numbering, V domains shown)
VH: B1 VH with D100S, N102M
VL: B1 VL
notes: as for B1
B27: “AT” antibody variant N98P (heavy chain CDR3) (antibody, name in Kabat numbering, V domains shown)
VH: B1 VH with D100S, N102P
VL: B1 VL
notes: as for B1
B28: “AT” antibody variant N98Q (heavy chain CDR3) (antibody, name in Kabat numbering, V domains shown)
VH: B1 VH with D100S, N102Q
VL: B1 VL
notes: as for B1

target: T1, human OPGbp [143-317]; experiment: SPR (BIAcore), immobilized OPGbp [143-317]

B1 and B2 are within 1.5-fold of each other in Kd: 0.51 nM for the first, 0.35 nM for the second.

Going from B3 to B4, the Kd falls from 8.45 nM to 3.85 nM (2.2-fold). The second binds more tightly here.

B5 and B6 are within 1.5-fold of each other in Kd: 1.86 nM for the first, 1.56 nM for the second.

B7 and B8 are within 1.5-fold of each other in Kd: 0.31 nM for the first, 0.3 nM for the second.

Compared with B9, B10 is 1.6-fold lower in Kd: 2.43 nM for the first, 1.53 nM for the second. The second binds more tightly here.

Compared with B11, B12 is 2.4-fold higher in Kd: 1.29 nM for the first, 3.09 nM for the second.

B13 and B14 are within 1.5-fold of each other in Kd: 0.38 nM for the first, 0.53 nM for the second.

First: B15
Second: B16
The Kd of the first is 1.8-fold higher: 2.25 nM for the first, 1.26 nM for the second. The second binds more tightly here.

B17 was tested, and the Kd was 0.67 nM.

B1 and B2 are within 1.5-fold of each other in koff: 0.00118 s⁻¹ for the first, 0.000901 s⁻¹ for the second.

Compared with B3, B4 is 5.6-fold higher in koff: 0.00268 s⁻¹ for the first, 0.015 s⁻¹ for the second.

First: B5
Second: B6
The koff of the first is 1.6-fold higher: 0.00764 s⁻¹ for the first, 0.00466 s⁻¹ for the second.

B7 and B8 are within 1.5-fold of each other in koff: 0.00141 s⁻¹ for the first, 0.00175 s⁻¹ for the second.

First: B9
Second: B10
The koff of the first is 4-fold higher: 0.0087 s⁻¹ for the first, 0.00215 s⁻¹ for the second.

Going from B11 to B12, the koff rises from 0.00188 s⁻¹ to 0.00359 s⁻¹ (1.9-fold).

First: B13
Second: B14
The koff of the first is 1.6-fold higher: 0.00262 s⁻¹ for the first, 0.00167 s⁻¹ for the second.

Compared with B15, B16 is 6-fold lower in koff: 0.0121 s⁻¹ for the first, 0.00203 s⁻¹ for the second.

With B17 the koff was 0.00185 s⁻¹.

B1 and B2 are within 1.5-fold of each other in kon: 2.28e+06 M⁻¹ s⁻¹ for the first, 2.54e+06 M⁻¹ s⁻¹ for the second.

Going from B3 to B4, the kon rises from 317000 M⁻¹ s⁻¹ to 3.87e+06 M⁻¹ s⁻¹ (12-fold).

B5 and B6 are within 1.5-fold of each other in kon: 4.12e+06 M⁻¹ s⁻¹ for the first, 2.99e+06 M⁻¹ s⁻¹ for the second.

B7 and B8 are within 1.5-fold of each other in kon: 4.55e+06 M⁻¹ s⁻¹ for the first, 5.84e+06 M⁻¹ s⁻¹ for the second.

First: B9
Second: B10
The kon of the first is 2.5-fold higher: 3.57e+06 M⁻¹ s⁻¹ for the first, 1.4e+06 M⁻¹ s⁻¹ for the second.

B11 and B12 are within 1.5-fold of each other in kon: 1.45e+06 M⁻¹ s⁻¹ for the first, 1.16e+06 M⁻¹ s⁻¹ for the second.

Going from B13 to B14, the kon falls from 6.97e+06 M⁻¹ s⁻¹ to 3.14e+06 M⁻¹ s⁻¹ (2.2-fold).

First: B15
Second: B16
The kon of the first is 3.3-fold higher: 5.37e+06 M⁻¹ s⁻¹ for the first, 1.61e+06 M⁻¹ s⁻¹ for the second.

In the case of B17, the kon is reported as 2.75e+06 M⁻¹ s⁻¹.

target: T1, human OPGbp [143-317]; experiment: SPR (BIAcore), immobilized OPGbp [143-317]; remark: another data set of the same source

Going from B18 to B19, the Kd rises from 0.46 nM to 1.32 nM (2.9-fold).

First: B20
Second: B21
The Kd of the first is 1100-fold higher: 26600 nM for the first, 24.3 nM for the second.

Compared with B22, B23 is 7.2-fold higher in Kd: 1.06 nM for the first, 7.6 nM for the second. The first binds more tightly here.

Compared with B25, B26 is 34-fold higher in Kd: 0.82 nM for the first, 27.5 nM for the second. The first binds more tightly here.

B27 and B28 are within 1.5-fold of each other in Kd: 1.13 nM for the first, 0.81 nM for the second.

B18 and B19 are within 1.5-fold of each other in koff: 0.00312 s⁻¹ for the first, 0.00359 s⁻¹ for the second.

Compared with B20, B21 is 18-fold lower in koff: 0.099 s⁻¹ for the first, 0.00559 s⁻¹ for the second.

Going from B22 to B23, the koff rises from 0.00234 s⁻¹ to 0.00436 s⁻¹ (1.9-fold).

Going from B25 to B26, the koff rises from 0.00122 s⁻¹ to 0.0814 s⁻¹ (67-fold).

B27 and B28 are within 1.5-fold of each other in koff: 0.00171 s⁻¹ for the first, 0.00151 s⁻¹ for the second.

Compared with B18, B19 is 2.5-fold lower in kon: 6.85e+06 M⁻¹ s⁻¹ for the first, 2.72e+06 M⁻¹ s⁻¹ for the second.

Going from B20 to B21, the kon rises from 3700 M⁻¹ s⁻¹ to 230000 M⁻¹ s⁻¹ (62-fold).

First: B22
Second: B23
The kon of the first is 3.9-fold higher: 2.2e+06 M⁻¹ s⁻¹ for the first, 568000 M⁻¹ s⁻¹ for the second.

First: B25
Second: B26
The kon of the first is 2-fold lower: 1.48e+06 M⁻¹ s⁻¹ for the first, 2.96e+06 M⁻¹ s⁻¹ for the second.

B27 and B28 are within 1.5-fold of each other in kon: 1.51e+06 M⁻¹ s⁻¹ for the first, 1.86e+06 M⁻¹ s⁻¹ for the second.

B24: no binding.
